Primed or numbered codes have the meaning given here. No end group written: not given here. fluorescein″ = fluorescein (FAM) label on the N-terminus (fluorescent label)
B1: RARA/RXRA heterodimer (ligand-binding domains) (complex)
chain 1: SESYTLTPEVGELIEKVRKAHQETFPALCQLGKYTTNNSSEQRVSLDIDLWDKFSELSTKCIIKTVEFAKQLPGFTTLTIADQITLLKAACLDILILRICTRYTPEQDTMTFSDGLTLNRTQMHNAGFGPLTDLVFAFANQLLPLEMDDAETGLLSAICLICGDRQDLEQPDRVDMLQEPLLEALKVYVRKRRPSRPHMFPKMLMKITDLRSISAKGAERVITLKMEIPGSMPPLIQEMLENSEGLD
chain 2: SSANEDMPVERILEAELAVEPKTETYVEANMGLNPSSPNDPVTNICQAADKQLFTLVEWAKRIPHFSELPLDDQVILLRAGWNELLIASFSHRSIAVKDGILLATGLHVHRNSAHSAGVGAIFDRVLTELVSKMRDMQMDKTELGCLRAIVLFNPDSKGLSNPAEVEALREKVYASLEAYCKHKYPEQPGRFAKLLLRLPALRSIGLKCLEHLFFFKLIGDTPIDTFLMEMLEAPHQMT
notes: LBD constructs are stated for the negative stain EM; also called RARA/RXRA^LBD; RARA/RXRA LBD heterodimer; source: E. coli BL21-CodonPlus(DE3)-RIL, purified (HisTrap, SEC); not shown: His6, N-terminal, kept

Legend:
[1] = biological target: T1, Full-length human FLAG-UBR5 (human, UniProt O95071 1-2799); assay: pull-down; FLAG-UBR5 (15 pmol) immobilised on FLAG M2 beads, 150 pmol nuclear receptor protein added with 50 μM agonist ligand (ATRA, 9-cis RA, both, estradiol or calcitriol); 25 mM HEPES pH 7.4, 125 mM NaCl, 0.05% TWEEN-20; 4°C; eluted with 3xFLAG peptide, western blot; details: both partners purified
T1 construct: UBR5 (ubiquitin protein ligase E3 component n-recognin 5), human, full length; Tetramer by SEC-MALS and cryo-EM; also called ubiquitin protein ligase E3 component n-recognin 5; UBR5 tetramer, WT; source: HEK293F (Expi293 system), transient expression, purified (FLAG M2, Mono Q, Superose 6); not shown: FLAG, N-terminal, kept

[2] = biological target: B1; assay: fluorescence polarisation; competitive reverse titration: tracer Flc-NCOA1 peptide 10 nM and RARA/RXRA 0.5 μM, unlabeled competitor peptides 0–85 μM; 20 mM HEPES pH 7.4, 110 mM NaCl, 500 μM TCEP, 1% glycerol, 0.1% pluronic acid, with or without 100 μM all-trans-retinoic acid; room temperature; details: both partners purified

T1 sequence (O95071 whole entry): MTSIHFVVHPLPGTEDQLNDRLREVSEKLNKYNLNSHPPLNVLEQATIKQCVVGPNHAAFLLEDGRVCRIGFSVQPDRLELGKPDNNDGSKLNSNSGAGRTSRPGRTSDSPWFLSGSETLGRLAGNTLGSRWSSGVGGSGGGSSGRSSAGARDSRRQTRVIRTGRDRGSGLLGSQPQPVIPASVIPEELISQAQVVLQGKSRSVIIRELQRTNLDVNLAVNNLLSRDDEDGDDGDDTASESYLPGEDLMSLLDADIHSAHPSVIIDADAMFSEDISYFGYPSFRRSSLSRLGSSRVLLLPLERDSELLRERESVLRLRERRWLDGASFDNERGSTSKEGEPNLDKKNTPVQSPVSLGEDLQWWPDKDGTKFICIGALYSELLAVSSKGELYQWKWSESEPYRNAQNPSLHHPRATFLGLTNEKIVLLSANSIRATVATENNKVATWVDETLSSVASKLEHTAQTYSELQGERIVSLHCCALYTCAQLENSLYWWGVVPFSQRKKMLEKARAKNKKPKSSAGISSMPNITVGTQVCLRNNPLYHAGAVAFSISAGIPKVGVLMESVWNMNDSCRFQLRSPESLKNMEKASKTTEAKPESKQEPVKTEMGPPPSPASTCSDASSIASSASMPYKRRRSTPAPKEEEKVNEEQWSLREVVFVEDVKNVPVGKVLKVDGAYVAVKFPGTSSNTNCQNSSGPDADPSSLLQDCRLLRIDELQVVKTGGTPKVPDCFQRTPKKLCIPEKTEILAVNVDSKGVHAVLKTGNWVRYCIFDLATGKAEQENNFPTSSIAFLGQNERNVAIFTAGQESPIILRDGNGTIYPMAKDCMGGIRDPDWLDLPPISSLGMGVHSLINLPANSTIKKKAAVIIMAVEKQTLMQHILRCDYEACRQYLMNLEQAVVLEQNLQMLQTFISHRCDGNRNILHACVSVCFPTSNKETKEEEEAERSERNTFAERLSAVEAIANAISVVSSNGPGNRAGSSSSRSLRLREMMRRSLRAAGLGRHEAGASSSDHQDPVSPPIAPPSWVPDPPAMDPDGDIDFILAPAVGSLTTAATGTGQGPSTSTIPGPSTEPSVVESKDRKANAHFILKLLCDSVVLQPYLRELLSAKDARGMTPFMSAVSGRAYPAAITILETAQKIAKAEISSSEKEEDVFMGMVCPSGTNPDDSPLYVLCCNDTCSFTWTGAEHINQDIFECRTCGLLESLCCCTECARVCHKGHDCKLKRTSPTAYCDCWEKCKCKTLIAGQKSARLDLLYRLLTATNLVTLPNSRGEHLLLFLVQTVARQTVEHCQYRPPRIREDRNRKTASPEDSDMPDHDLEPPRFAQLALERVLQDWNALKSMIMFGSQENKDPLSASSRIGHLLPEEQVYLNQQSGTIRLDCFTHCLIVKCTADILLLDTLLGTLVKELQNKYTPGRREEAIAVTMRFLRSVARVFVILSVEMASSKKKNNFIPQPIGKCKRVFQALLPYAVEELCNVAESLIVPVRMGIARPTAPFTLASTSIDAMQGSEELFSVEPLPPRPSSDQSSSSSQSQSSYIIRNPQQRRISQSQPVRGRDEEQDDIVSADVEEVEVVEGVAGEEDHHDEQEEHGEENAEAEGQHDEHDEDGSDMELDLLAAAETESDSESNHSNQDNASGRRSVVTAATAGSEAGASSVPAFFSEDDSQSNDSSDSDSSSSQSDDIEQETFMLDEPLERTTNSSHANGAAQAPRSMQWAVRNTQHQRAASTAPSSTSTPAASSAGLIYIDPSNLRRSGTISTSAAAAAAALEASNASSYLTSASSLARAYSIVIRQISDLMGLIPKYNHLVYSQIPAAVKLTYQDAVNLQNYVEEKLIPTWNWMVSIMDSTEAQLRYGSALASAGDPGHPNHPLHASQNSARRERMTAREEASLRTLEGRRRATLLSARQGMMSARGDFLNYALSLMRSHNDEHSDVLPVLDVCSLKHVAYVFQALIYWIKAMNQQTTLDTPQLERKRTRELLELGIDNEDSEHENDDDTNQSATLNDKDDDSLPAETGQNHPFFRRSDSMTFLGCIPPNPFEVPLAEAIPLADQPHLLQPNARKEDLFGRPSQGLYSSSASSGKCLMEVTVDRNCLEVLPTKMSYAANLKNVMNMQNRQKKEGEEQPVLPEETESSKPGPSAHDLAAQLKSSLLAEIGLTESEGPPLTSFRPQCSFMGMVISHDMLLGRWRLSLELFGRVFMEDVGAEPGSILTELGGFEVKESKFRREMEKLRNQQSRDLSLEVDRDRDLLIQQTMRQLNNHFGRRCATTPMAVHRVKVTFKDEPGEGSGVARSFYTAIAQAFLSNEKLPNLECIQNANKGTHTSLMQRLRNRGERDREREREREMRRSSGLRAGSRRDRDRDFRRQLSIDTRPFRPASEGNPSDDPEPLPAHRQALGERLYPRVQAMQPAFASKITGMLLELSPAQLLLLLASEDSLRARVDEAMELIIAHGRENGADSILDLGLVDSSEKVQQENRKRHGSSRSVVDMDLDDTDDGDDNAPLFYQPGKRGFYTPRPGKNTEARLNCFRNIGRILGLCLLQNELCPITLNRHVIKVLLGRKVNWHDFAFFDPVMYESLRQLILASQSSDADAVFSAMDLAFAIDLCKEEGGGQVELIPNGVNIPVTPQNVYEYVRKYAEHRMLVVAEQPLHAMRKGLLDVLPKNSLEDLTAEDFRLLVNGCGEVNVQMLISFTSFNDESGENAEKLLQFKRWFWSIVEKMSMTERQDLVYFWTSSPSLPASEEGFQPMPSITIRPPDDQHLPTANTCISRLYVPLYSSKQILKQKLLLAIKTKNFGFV

| binding result [1] | binding result [2] | Binder |
| --- | --- | --- |
| binds | – | His-tagged ER ligand-binding domain (aa301-552) (domain or fragment, UniProt P03372 301-552, looked up, also called estrogen receptor; source: E. coli BL21-CodonPlus(DE3)-RIL, purified (HisTrap, SEC); not shown: His6, N-terminal, kept) SKKNSLALSLTADQMVSALLDAEPPILYSEYDPTRPFSEASMMGLLTNLADRELVHMINWAKRVPGFVDLTLHDQVHLLECAWLEILMIGLVWRSMEHPGKLLFAPNLLLDRNQGKCVEGMVEIFDMLLATSSRFRMMNLQGEEFVCLKSIILLNSGVYTFLSSTLKSLEEKDHIHRVLDKITDTLIHLMAKAGLTLQQQHQRLAQLLLILSHIRHMSNKGMEHLYSMKCKNVVPLYDLLLEMLDAHRLHAP |
| binds | – | His-tagged RARA ligand-binding domain (aa175-421) (domain or fragment, UniProt P10276 175-421, looked up, no cleavage of the His6-Smt3 fusion is described, and the protein is called His-tagged in the pull-downs, so Smt3 was probably still on; also called His-RARA; RARA LBD; source: E. coli BL21-CodonPlus(DE3)-RIL, purified (HisTrap, SEC); not shown: His6, N-terminal, kept) SESYTLTPEVGELIEKVRKAHQETFPALCQLGKYTTNNSSEQRVSLDIDLWDKFSELSTKCIIKTVEFAKQLPGFTTLTIADQITLLKAACLDILILRICTRYTPEQDTMTFSDGLTLNRTQMHNAGFGPLTDLVFAFANQLLPLEMDDAETGLLSAICLICGDRQDLEQPDRVDMLQEPLLEALKVYVRKRRPSRPHMFPKMLMKITDLRSISAKGAERVITLKMEIPGSMPPLIQEMLENSEGLD |
| binds | – | B1 |
| – | binds | {fluorescein″}-ARHKILHRLLQEGS (NCOA1 LxxLL peptide, printed as residues 687-698; also called Fluorescein NCOA1 peptide aa687-698; source: synthetic peptide; bought: Peptides & Elephants) [Fluorescein-labelled NCOA1 peptide residues 687–698 (Flc-ARHKILHRLLQEGS)] |
| binds | – | VDR aa118-427 (recombinant) (domain or fragment, UniProt P11473 118-427, looked up, also called vitamin D receptor; source: E. coli BL21-CodonPlus(DE3)-RIL, purified (HisTrap, SEC)) DSLRPKLSEEQQRIIAILLDAHHKTYDPTYSDFCQFRPPVRVNDGGGSHPSRPNSRHTPSFSGDSSSSCSDHCITSSDMMDSSSFSNLDLSEEDSDDPSVTLELSQLSMLPHLADLVSYSIQKVIGFAKMIPGFRDLTSEDQIVLLKSSAIEVIMLRSNESFTMDDMSWTCGNQDYKYRVSDVTKAGHSLELIEPLIKFQVGLKKLNLHEEEHVLLMAICIVSPDRPGVQDAALIEAIQDRLSNTLQTYIRCRHPPPGSHLLYAKMIQKLADLRSLNEEHSKQYRCLSFQPECSMKLTPLVLEVFGNEIS |
